Source: the supplement of paper PMC7877785
± gives the uncertainty stated by the source.

Assay: self-splicing fitness, log relative to wild type (ln ratio); higher = more splicing; Tetrahymena group I intron in knt gene, E. coli kanamycin selection, DiMSum; sequences stand for … in CUCUCU…GGAGGGAAAAGUUAUCAGGCAUGCACCUGGUAGCUAGUCUUUAAACCAAUAGAUUGCAUCGGUUUAAAAGGCAAGACCGUCAAAUUGCGGGAAAGGGGUCAACAGCCGUUCAGUACCAAGUCUCAGGGGAAACUUUGAGAUGGCCUUGCAAAGGGUAUGGUAAUAAGCUGACGGACAUGGUCCUAACCACGCAGCCAAGUCCUAAGUCAACAGAUCUUCUGUUGAUAUGGAUGCAGUUCACAGACUAAAUGUCGGUCGGGGAAGAUGUAUUCUUCUCAUAAGAUAUAGUCGGACCUCUCCUUAAUGGGAGCUAGCGGAUGAAGUGAUGCAACACUGGAGCCGCUGGGAACUAAUUUGUAUGCGAAAGUAUAUUGAUUAGUUUUGGAGUACUCGUGGUCG
Outline: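 DiMSum derived fitness as the error-weighted combination of fold changes across replicates, kanamycin versus no kanamycin, normalised to wild type. E. coli BL21(DE3) held the library, which randomised all eight P1ex-region intron nucleotides within the knt kanamycin-resistance gene on pET-22b(+). Six replicate transformations grew overnight at 37°C or 30°C on LB agar with or without 25 μg/mL kanamycin, also containing 100 μg/mL carbenicillin, 50 μM IPTG and 0.2% rhamnose, and pooled colonies were amplicon-sequenced on an Illumina HiSeq 2500.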

Sequence | self-splicing fitness (ln) (37 °C) | self-splicing fitness (ln) (30 °C)
UAAAAGCAAUAUUACGCUUC | -3.19 ± 0.25 | –
CACGAGCAAUAUUACGGCCU | -3.06 ± 0.3 | -4.34 ± 0.36
GAUCAGCAAUAUUACGCGAU | -2.6 ± 0.2 | -3.92 ± 0.21
GCCCAGCAAUAUUACGUAAC | -0.153 ± 0.1 | -0.899 ± 0.074
GGUCAGCAAUAUUACGCUGA | -1.95 ± 0.32 | -3.21 ± 0.44
ACCCAGCAAUAUUACGAGGC | -0.981 ± 0.089 | -2.72 ± 0.1
CCUUAGCAAUAUUACGUUAC | -2.91 ± 0.29 | -3.65 ± 0.35
UGAAAGCAAUAUUACGUUCU | -0.484 ± 0.1 | -1.37 ± 0.11
UCUCAGCAAUAUUACGUCGC | -2.47 ± 0.33 | -2.22 ± 0.23
ACGCAGCAAUAUUACGCCGA | -0.977 ± 0.094 | -1.23 ± 0.099
GCGAAGCAAUAUUACGACCA | -0.159 ± 0.38 | -0.945 ± 0.21
AGCGAGCAAUAUUACGGAGU | -3.15 ± 0.3 | -3.99 ± 0.28
CCCUAGCAAUAUUACGACAC | -2.32 ± 0.28 | –
UCCAAGCAAUAUUACGCUAC | -2.48 ± 0.24 | -3.8 ± 0.27
ACCAAGCAAUAUUACGUCUC | -2.28 ± 0.12 | -2.73 ± 0.094
CCUAAGCAAUAUUACGGGUA | -1.67 ± 0.25 | -2.36 ± 0.27
AACAAGCAAUAUUACGUUUC | -2.95 ± 0.15 | -4.46 ± 0.22
UUAGAGCAAUAUUACGCCAG | 0.228 ± 0.23 | -0.402 ± 0.15
GGCCAGCAAUAUUACGGGGG | -1.85 ± 0.17 | -3.54 ± 0.18
UGAUAGCAAUAUUACGACUU | -0.431 ± 0.12 | -0.653 ± 0.17
GAUUAGCAAUAUUACGCUGU | -1.74 ± 0.31 | -2.84 ± 0.28
GGAUAGCAAUAUUACGGCGA | -0.302 ± 0.12 | -0.101 ± 0.15

Sequence | self-splicing fitness (ln) (37 °C) | self-splicing fitness (ln) (30 °C)
CUGAAGCAAUAUUACGUCGU | -1.79 ± 0.21 | -3.23 ± 0.26
AUAGAGCAAUAUUACGGCCG | -1.36 ± 0.45 | -0.599 ± 0.24
GUCAAGCAAUAUUACGGAGU | -0.536 ± 0.12 | -2.1 ± 0.12
GUCGAGCAAUAUUACGAUUG | -3.26 ± 0.26 | -4.1 ± 0.33
GGUUAGCAAUAUUACGUAGU | -0.417 ± 0.12 | -1.03 ± 0.097
AAUUAGCAAUAUUACGGGUG | -0.54 ± 0.083 | -1.04 ± 0.066
ACGUAGCAAUAUUACGGUUU | -0.957 ± 0.11 | -2.03 ± 0.096
UAUCAGCAAUAUUACGACUG | 0.512 ± 0.13 | 0.153 ± 0.078
GGGAAGCAAUAUUACGUAGA | -0.824 ± 0.19 | -1.36 ± 0.15
UGGUAGCAAUAUUACGUUAU | -3.33 ± 0.31 | -3.29 ± 0.28
UCCAAGCAAUAUUACGGACC | -0.119 ± 0.18 | -2.63 ± 0.36
ACUCAGCAAUAUUACGCGGU | -2.01 ± 0.21 | -3.73 ± 0.19
UUAAAGCAAUAUUACGGUUG | -0.199 ± 0.089 | -1.13 ± 0.071
UCUAAGCAAUAUUACGUGGU | -2 ± 0.14 | -2.45 ± 0.12
GUAGAGCAAUAUUACGAAAG | – | -1.56 ± 0.32
GGGCAGCAAUAUUACGCGUG | -1.87 ± 0.22 | -0.165 ± 0.18
AGCUAGCAAUAUUACGAAGG | -1.82 ± 0.26 | -4.22 ± 0.39
CCUAAGCAAUAUUACGUCCA | -2.1 ± 0.41 | -3.28 ± 0.25
UUUGAGCAAUAUUACGCCAG | -2.12 ± 0.47 | -2.78 ± 0.36
GAGGAGCAAUAUUACGUUCC | -2.82 ± 0.48 | –
UAUGAGCAAUAUUACGGGCC | -3.14 ± 0.43 | –
